According to paper PMC2834951 (Nature structural & molecular biology, 2009):

T1: human Ubc13 (human, UniProt P61088 1-152)
T1 sequence (looked up): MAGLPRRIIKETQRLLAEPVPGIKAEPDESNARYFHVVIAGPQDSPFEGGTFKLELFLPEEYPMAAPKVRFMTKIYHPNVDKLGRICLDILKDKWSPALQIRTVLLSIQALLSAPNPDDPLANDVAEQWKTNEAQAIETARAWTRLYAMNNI


How the values were obtained:
[1] = biological target: T1, human Ubc13; assay: SEC
[2] = biological target: the molecule itself; assay: SAXS

Row | binding result [1] | Binder | stoichiometry N [2]
1 | binds | human TRAF6 RZ12 (residues 50-187) (domain or fragment, UniProt Q9Y4K3 50-187, looked up) MEEIQGYDVEFDPPLESKYECPICLMALREAVQTPCGHRFCKACIIKSIRDAGHKCPVDNEILLENQLFPDNFAKREILSLMVKCPNEGCLHKMELRHLEDHQAHCEFALMDCPQCQRPFQKFHINIHILKDCPRRQV | –
2 | – | human TRAF6 RZ123 (residues 50-211), wild type (domain or fragment, UniProt Q9Y4K3 50-211, looked up) MEEIQGYDVEFDPPLESKYECPICLMALREAVQTPCGHRFCKACIIKSIRDAGHKCPVDNEILLENQLFPDNFAKREILSLMVKCPNEGCLHKMELRHLEDHQAHCEFALMDCPQCQRPFQKFHINIHILKDCPRRQVSCDNCAASMAFEDKEIHDQNCPLA | 2
3 | binds | human TRAF6 RZ1 (residues 50-159) (domain or fragment, UniProt Q9Y4K3 50-159, looked up) MEEIQGYDVEFDPPLESKYECPICLMALREAVQTPCGHRFCKACIIKSIRDAGHKCPVDNEILLENQLFPDNFAKREILSLMVKCPNEGCLHKMELRHLEDHQAHCEFAL | –
